The text below walks through data of patent US12723105 (BEIJING STARMAB BIOMED TECHNOLOGY, dated 2026).

Experiment [1] deals with T1, Human PD-L1 antigen (human, UniProt Q9NZQ7 19-238).
T1 construct: also called PD-L1 protein
The experiment in a line: BLI (Octet), His-tagged VHH on anti-penta-His tips, soluble human PD-L1. In general terms: BLI is a label-free optical method that tracks binding on a fibre tip over time.

Experiment [2] addresses T2, Human serum albumin (human, UniProt P02768 25-609).
T2 construct: also called HSA
The experiment in a line: BLI (Octet) as in Example 1, His-tagged VHH, HSA.

Experiment [3] concerns the target T2, Human serum albumin. Briefly: BLI (Octet), cross-species albumin binding.
Experiment [4] deals with Monkey serum albumin (Monkey). The experiment in a line: BLI (Octet), cross-species albumin binding.
Experiment [5] addresses T3, Human CD16A (human, UniProt P08637 17-208, limits assumed).
T3 construct: also called FcγRIIIa
Briefly: BLI (Octet) as in Example 1, His-tagged VHH, human CD16A.

In experiment [6] the target is T4, CD47 natively expressed on tumor cell surface (Jurkat, HL60 cells) (human, UniProt Q08722 19-323).
T4 construct: whole, on cells; also called CD47 on the HL60 cell surface; CD47 on the Jurkat cell surface
Briefly: flow cytometry on HL60 cells (express CD47 but not PD-L1). Background: A flow cytometer gives signals particle by particle.

The target in experiment [7] is mouse serum albumin (mouse, UniProt P07724 25-608). Briefly: BLI (Octet), cross-species albumin binding.

T3 sequence (P08637 17-208 limits assumed): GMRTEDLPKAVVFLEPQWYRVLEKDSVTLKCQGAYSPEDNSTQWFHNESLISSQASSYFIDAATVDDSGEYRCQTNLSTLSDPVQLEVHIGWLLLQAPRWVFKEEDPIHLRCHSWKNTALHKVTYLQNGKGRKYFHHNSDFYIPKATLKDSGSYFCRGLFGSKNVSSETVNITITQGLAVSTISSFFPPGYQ
T1 sequence (Q9NZQ7 19-238 limits assumed): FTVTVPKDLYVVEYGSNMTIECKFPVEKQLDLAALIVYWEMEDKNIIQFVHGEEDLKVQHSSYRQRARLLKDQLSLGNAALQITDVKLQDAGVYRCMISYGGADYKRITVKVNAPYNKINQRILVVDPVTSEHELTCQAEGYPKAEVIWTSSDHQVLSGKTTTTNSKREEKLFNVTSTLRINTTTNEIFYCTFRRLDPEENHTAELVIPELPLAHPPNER

B1: PL14 (VHH)
VHH: EVQLVESGGGLVQAGGSLRLSCAASGSTSGIYDMGWYRQAPGKLREVVGIITSGGTTNYADFAKGRFTISRDNAKNMMYLQMNSLKPEDTAVYYCNIRTRLIIWGQGTQVTVSS
notes: not shown: C-terminal His-tag
A word on the Kd: it is the concentration at which binding is half-saturated. What is called koff is the first-order rate constant of dissociation. For orientation: kon means the rate constant with which the complex forms. Consider B1, for which, in experiment [1], the Kd was 0.0177 nM, the koff was determined as 1.1e-06 s⁻¹ and the kon is 62100 M⁻¹ s⁻¹.

B2: HS12 (VHH)
VHH: QVQLVESGGGSVQAGGSLRLSCAASGRTFISFSMGWFRQAPGKEREFVASITNSGSGILYGDSVKGRFTISRDNAKNTMYLQMNSLKPEDTAVYYCAAGTGAGRYRYASMFDYWGQGTQVTVSS
notes: not shown: C-terminal His-tag
Regarding B2, in experiment [2], the Kd stood at 0.568 nM, the koff was 0.000583 s⁻¹ and the kon came out at 1.03e+06 M⁻¹ s⁻¹.

B3: HS5 (VHH)
VHH: EVQLVESGGGLVQAGGSLRLSCAASGRTFTTHAMGWFRQAPGKEREFVATINWGGRTTYYADSVKGRFIISRDTGANTVYLQMNSLKPEDTAVYYCASNLDTYNVRAGTTNSWGQGTQVTVSS
notes: not shown: C-terminal His-tag
In experiment [2], B3 registered a Kd of 0.946 nM, a koff of 0.000765 s⁻¹ and a kon of 809000 M⁻¹ s⁻¹.

B4: hHS5 (VHH)
VHH: EVQLLESGGGLVQPGGSLRLSCAASGRTFTTHAMGWFRQAPGKEREFVSAINWGGRTTYYADSVKGRFIISRDTGANTLYLQMNSLRAEDTAVYYCASNLDTYNVRAGTTNSWGQGTQVTVSS
notes: also called humanized HS5; not shown: C-terminal His-tag
For B4, the Kd in experiment [3] stood at 0.817 nM; in experiment [4], 11.6 nM.

B5: CD16F1 (VHH)
VHH: EVQLVESGGGLVQPGGSLRLSCAVSGSLFSARVMGWYRQAPGKQRELVAAITSGVRTDYADSVKGRFTISRDNAKRAVYLQMNSLKPEDTAVYYCNVNLYNTGNYWGQGTQVTVSS
notes: not shown: C-terminal His-tag
In experiment [5], B5 had a Kd of 4.68 nM, a koff of 0.000109 s⁻¹ and a kon of 23300 M⁻¹ s⁻¹.

B6: CD16E11 (VHH)
VHH: QVQLVESGGGLVQPGGSLTLSCRASGFTFSNHAMSWVRQAPGKGLEWVSEISFNGHATRYADSLKGRFTISRDNAKNTLYLQMNTLKPEDTAVYYCRKGWNATPQIGERGRGTQVTVSS
notes: not shown: C-terminal His-tag
On to B6, for which, in experiment [5], the Kd is 3.02 nM, the koff stood at 6e-05 s⁻¹ and the kon amounted to 19900 M⁻¹ s⁻¹.

B7: PL16 (VHH)
VHH: QVQLVESGGGLVQAGGSLRLSCAFSGGTFLTYSLGWFRQGPGKEREFVASINWSGYMTSYVDSVKGRFTISRDNAKNTVYLQMNSLKPEDTALYYCAAARTAIAAKRSSEFDYWGQGAQVTVSS
notes: not shown: C-terminal His-tag
In experiment [1], B7 returned a Kd of 0.0271 nM, a koff of 2.98e-06 s⁻¹ and a kon of 110000 M⁻¹ s⁻¹.

B8: 1518-HS5 (CD16F1-L1-hHS5-L1-hA09-10-3-L3-hA09-10-4-L1-hPL16-L3-hPL16) (bispecific antibody)
chain: EVQLVESGGGLVQPGGSLRLSCAVSGSLFSARVMGWYRQAPGKQRELVAAITSGVRTDYADSVKGRFTISRDNAKRAVYLQMNSLKPEDTAVYYCNVNLYNTGNYWGQGTQVTVSSGGGGSGGGSEVQLLESGGGLVQPGGSLRLSCAASGRTFTTHAMGWFRQAPGKEREFVSAINWGGRTTYYADSVKGRFIISRDTGANTLYLQMNSLRAEDTAVYYCASNLDTYNVRAGTTNSWGQGTQVTVSSGGGGSGGGSEVQLVESGGGLVQPGGSLRLSCAASGGGRTFSNYALGWFRQAPGKEREFVAAISRSGGNINYADSVKGRFTISRDNFKNTVYLQMSSLRAEDTAVYYCAAHYLLLPSYISTSTNMYNYWGQGTQVTVSSAAAQVQLVESGGGLVQPGGSLRLSCAASGGGRTFSNYALGWFRQAPGKEREFVAAISRSGGNINYADSVKGRFTISRDNAKNTVYLQMSSLRAEDTAVYYCAAHYLLLPSYISTSTNMYNYWGQGTQVTVSSGGGGSGGGSEVQLVESGGGLVQPGGSLRLSCAASGGTFLTYSMSWVRQAPGKEREFVSSINWSGYMTYYADSVKGRFTISRDNSKNTLYLQMNSLRAEDTAVYYCAAARTAIAAKRSSEFDYWGQGTQVTVSSAAAEVQLVESGGGLVQPGGSLRLSCAASGGTFLTYSMSWVRQAPGKEREFVSSINWSGYMTYYADSVKGRFTISRDNSKNTLYLQMNSLRAEDTAVYYCAAARTAIAAKRSSEFDYWGQGTQVTVSS
notes: Multi-specific single chain antibody with the 9-residue linker G4SG3S between the anti-HSA and anti-CD47 domains
For orientation: EC50 means the concentration at which the effect is half-maximal. B8 showed an EC50 in experiment [6] of 26 nM.

B9: HS10 (VHH)
VHH: EVQLVESGGGLVQPGGSLRLSCAASGSTDSAYRMGWFRQAPGKEREFVSAINWSDGRTYYADSVKGRFTISRDNSKNTLYLQMNSLRAEDTAVYYCAADPDSRLYYTVPQNYDYWGQGTLVTVSS
notes: not shown: C-terminal His-tag
In experiment [2], B9 yielded a Kd of 2.89 nM, a koff of 8.01e-05 s⁻¹ and a kon of 27700 M⁻¹ s⁻¹.

B10: hHS10 (VHH)
VHH: EVQLVESGGGLVQPGGSLRLSCAASGSTDSAYRMGWFRQAPGKEREFVSAINWSDGRTYYADSVKGRFTISRDNSKNTLYLQMNSLRAEDTAVYYCAADPDSRLYYTVPQNYDYWGQGTLVTVSS
notes: also called humanized HS10; not shown: C-terminal His-tag
In the case of B10, the Kd stood at 3.18 nM in experiment [3], 4.57 nM in experiment [7] and 8.08 nM in experiment [4].

B11: PL18 (VHH)
VHH: EVQLVESGGGLVQAGGSLRLSCAASGRTFNIYSMAWFRQAPGKEREFVVRINWNRGTTYYADSVKGRFTISRDNAKNTVYLQMSNLKPEDTAVYYCAARGSPSTIGAFTSASHYDYWGQGTQVTVSS
notes: not shown: C-terminal His-tag
In experiment [1], B11 came in with a Kd of 2.67 nM, a koff of 0.000114 s⁻¹ and a kon of 42700 M⁻¹ s⁻¹.

B12: 1518-HS5-GS15 (bispecific antibody)
chain: EVQLVESGGGLVQPGGSLRLSCAVSGSLFSARVMGWYRQAPGKQRELVAAITSGVRTDYADSVKGRFTISRDNAKRAVYLQMNSLKPEDTAVYYCNVNLYNTGNYWGQGTQVTVSSGGGGSGGGSEVQLLESGGGLVQPGGSLRLSCAASGRTFTTHAMGWFRQAPGKEREFVSAINWGGRTTYYADSVKGRFIISRDTGANTLYLQMNSLRAEDTAVYYCASNLDTYNVRAGTTNSWGQGTQVTVSSGGGGSGGGGSGGGGSEVQLVESGGGLVQPGGSLRLSCAASGGGRTFSNYALGWFRQAPGKEREFVAAISRSGGNINYADSVKGRFTISRDNFKNTVYLQMSSLRAEDTAVYYCAAHYLLLPSYISTSTNMYNYWGQGTQVTVSSAAAQVQLVESGGGLVQPGGSLRLSCAASGGGRTFSNYALGWFRQAPGKEREFVAAISRSGGNINYADSVKGRFTISRDNAKNTVYLQMSSLRAEDTAVYYCAAHYLLLPSYISTSTNMYNYWGQGTQVTVSSGGGGSGGGSEVQLVESGGGLVQPGGSLRLSCAASGGTFLTYSMSWVRQAPGKEREFVSSINWSGYMTYYADSVKGRFTISRDNSKNTLYLQMNSLRAEDTAVYYCAAARTAIAAKRSSEFDYWGQGTQVTVSSAAAEVQLVESGGGLVQPGGSLRLSCAASGGTFLTYSMSWVRQAPGKEREFVSSINWSGYMTYYADSVKGRFTISRDNSKNTLYLQMNSLRAEDTAVYYCAAARTAIAAKRSSEFDYWGQGTQVTVSS
notes: Multi-specific single chain antibody with the 15-residue linker (G4S)3 between the anti-HSA and anti-CD47 domains
In experiment [6], B12 had an EC50 of 8.4 nM.

B13: HS6 (VHH)
VHH: EVQLVESGGGLVQAGGSLRLSCAASGRIFHTYAVGWFRQAPGKERESVVIINWSSDHTYVAQSVKGRFTISRDRAKNTFYLQMNSLKPEDTAVYYCAVRRRLYGLRESDFDSWGQGTQVTVSS
notes: not shown: C-terminal His-tag
In experiment [2], B13 had a Kd of 0.498 nM, a koff of 0.000829 s⁻¹ and a kon of 1.67e+06 M⁻¹ s⁻¹.
